The source of these data is article PMC3206816.

For assay [1], the target named is full-length HIV-1 Nef (RP14) (HIV-1). The experiment in a line: cross-linking; purified Nef with glutaraldehyde (0.0%, 0.025%, 0.05%, 0.075%, 0.1%) on ice for 15 minutes; 12% SDS-PAGE, silver stain and western blot with anti-His antibody.
Assay [2] has the same target. The experiment in a line: crystal structure; hanging drop, Nef at ~3.7 mg/ml; 0.1 M Tris pH 8.5, 0.2 M ammonium sulfate, 20% PEG 8000; space group P6(3)22, two chains in the asymmetric unit, tetramer with 4-fold symmetry formed through crystal symmetry; 3.5 Å.

Several values for one entry are separate records, joined by “and”; a condition that tells them apart may be missing. Equal entries are not always repeated.

In the case of “full-length HIV-1 Nef (RP14) (natural protein)”, the stoichiometry N in assay [1] was 2 and 4; in assay [2] it was 4.
